Target: T1, 人干扰素α受体1(IFNAR1) (human, UniProt P17181 28-436)
T1 construct: Soluble antigen run over captured antibody in the Biacore assay; also called 人IFNAR1; Human Interferon alpha/beta Receptor 1
T1 sequence: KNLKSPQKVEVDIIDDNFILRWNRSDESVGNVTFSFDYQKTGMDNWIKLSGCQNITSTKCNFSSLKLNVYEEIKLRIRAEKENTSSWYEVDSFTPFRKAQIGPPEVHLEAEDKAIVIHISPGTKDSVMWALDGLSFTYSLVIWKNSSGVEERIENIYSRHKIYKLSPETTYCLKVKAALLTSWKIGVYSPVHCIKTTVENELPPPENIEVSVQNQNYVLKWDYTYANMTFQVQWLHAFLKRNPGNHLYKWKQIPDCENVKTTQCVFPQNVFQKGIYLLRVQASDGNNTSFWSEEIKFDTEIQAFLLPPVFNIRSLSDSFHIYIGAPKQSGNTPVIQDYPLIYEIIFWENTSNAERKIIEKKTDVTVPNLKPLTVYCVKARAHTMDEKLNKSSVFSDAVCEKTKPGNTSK
Test: SPR, Biacore T200, antibody captured on Protein A chip, antigen in solution, 25℃, 1:1 model, mean of three runs

B1: QX006N(HZD1203-45-IgG4.1) (antibody, V domains shown)
VH: EVQLVESGGGLVQPGGSLRLSCAASGFSLSSYYMTWVRQAPGKGLEWVSVINVYGGTYYASWAKGRFTISRDNSKNTLYLQMNSLRAEDTAVYYCAREDVAVYMAIDLWGQGTLVTVSS
VL: AIQMTQSPSSLSASVGDRVTITCQASQSISNQLSWYQQKPGKAPKLLIYDASSLASGVPSRFSGSRSGTKFTLTISSLQPEDFATYYCLGIYGDGADDGIAFGGGTKVEIK
notes: Humanised rabbit antibody from clone 1203#; also called 抗人干扰素α受体1(IFNAR1)单克隆抗体
**Q.** For B1, which Kd is on record?
**A.** 108 pM

**Q.** And the koff?
**A.** 3.76e-05 s⁻¹

**Q.** What about the kon of the same binder?
**A.** 347000 M⁻¹ s⁻¹
